Test results published in patent EP4682169A1 (Gracell Biotechnologies (Shanghai) Co., Ltd., dated 2026).
Values joined by “and” are separate entries in the source; they are usually repeats but may differ in a detail not shown here. Equal values may be shown once.

How the values were obtained:
[1] = biological target: T1, human Claudin18.2 expressed on cells (human, UniProt P56856-2 1-261); assay: flow cytometry on 293FT CLDN18.2-Luc cells, APC anti-mouse IgG Fc
T1 construct: whole, on cells; also called CLDN18.2

[2] = biological target: T2, Human Claudin-18.2 protein (human, UniProt P56856-2 1-261, limits assumed); assay: SPR (Biacore 8K), antibody captured on Protein A, Claudin-18.2 protein as analyte
T2 construct: Soluble analyte injected over captured antibodies in SPR

[3] = biological target: T3, Claudin 18.2 VLP (UniProt P56856 1-261); assay: ELISA, coated antigen 200 ng/well; antibody 0.014 ug/mL
T3 construct: Antigen coated on ELISA plates, 200 ng/well; source and construct not described; also called Claudin18.2-VLP protein; Claudin18.2 VLP antigen

[4] = biological target: T4, Claudin18.2 recombinant protein (His tag) (UniProt P56856-2 1-261, limits assumed); assay: as above
T4 construct: also called Claudin18.2-his antigen; not shown: His tag

[5] = biological target: T3, Claudin 18.2 VLP; assay: ELISA, coated antigen 200 ng/well; antibody 0 ug/mL (blank well, background)
[6] = biological target: T4, Claudin18.2 recombinant protein (His …); assay: as above
[7] = biological target: T3, Claudin 18.2 VLP; assay: ELISA, coated antigen 200 ng/well; antibody 0.041 ug/mL
[8] = biological target: T4, Claudin18.2 recombinant protein (His …); assay: as above
[9] = biological target: T3, Claudin 18.2 VLP; assay: ELISA, coated antigen 200 ng/well; antibody 100 ug/mL (so in the source)
[10] = biological target: T3, Claudin 18.2 VLP; assay: ELISA, coated antigen 200 ng/well; antibody 0.123 ug/mL
[11] = biological target: T4, Claudin18.2 recombinant protein (His …); assay: as above
[12] = biological target: T3, Claudin 18.2 VLP; assay: ELISA, coated antigen 200 ng/well; antibody 1.111 ug/mL
[13] = biological target: T4, Claudin18.2 recombinant protein (His …); assay: as above
[14] = biological target: T3, Claudin 18.2 VLP; assay: ELISA, coated antigen 200 ng/well
[15] = biological target: T4, Claudin18.2 recombinant protein (His …); assay: ELISA, coated antigen 200 ng/well
[16] = biological target: T3, Claudin 18.2 VLP; assay: ELISA, coated antigen 200 ng/well; antibody 0.37 ug/mL
[17] = biological target: T4, Claudin18.2 recombinant protein (His …); assay: as above
[18] = biological target: T3, Claudin 18.2 VLP; assay: ELISA, coated antigen 200 ng/well; antibody 3.333 ug/mL
[19] = biological target: T4, Claudin18.2 recombinant protein (His …); assay: as above
[20] = biological target: T4, Claudin18.2 recombinant protein (His …); assay: ELISA, coated antigen 200 ng/well; antibody 100 ug/mL (so in the source)
[21] = biological target: T4, Claudin18.2 recombinant protein (His …); assay: ELISA, coated antigen; upper end, tied by Table 3 to 1-hIgG1Fc on Claudin 18.2-his (196 nM)
[22] = biological target: T3, Claudin 18.2 VLP; assay: ELISA, coated antigen; lower end, tied by Table 3 to 10-hIgG1Fc on the VLP (4.96 nM)
[23] = biological target: T1, human Claudin18.2 expressed on cells; assay: phage flow cytometry, phage supernatant, PE anti-M13

B1: 18-mIgG2aFc (Fc fusion)
chain: QVQLVESGGGLVQPGGSLRLSCAASGSILNLMTTGWYRQAPGKQRDLVATITFGGTTNYADAVKGRFTISRDNAKNTVYLQMNNLEPEDTAVYFCYLDYIFGFGDRRVAWDQGTQVTVSS
notes: Fusion antibody anti-Claudin18.2 VHH-mIgG2aFc; not shown: mouse IgG2a Fc (mIgG2aFc)
[1]
  EC50: 0.06 nM

B2: 5-mIgG2aFc (Fc fusion)
chain: QVQLVESGGGLVQTGGSLRLSCAASDSTFSSYIMGWFRQAPGKEREFVAGITWSGGIKDYADSVKGRFTIARDNAKNTVYLQMNSLKPEDAAIYYCAANAIQLTRRSGDYAYWGQGTQVTVSS
notes: Fusion antibody anti-Claudin18.2 VHH-mIgG2aFc; also called 5-mIgG Fc; 5-mlgG2a Fc; not shown: mouse IgG2a Fc (mIgG2aFc)
[2]
  Kd: 3.02 nM
  koff: 0.000373 s⁻¹
  kon: 123000 M⁻¹ s⁻¹
[1]
  EC50: 0.013 nM

B3: 5-hIgG1Fc (Fc fusion)
chain: QVQLVESGGGLVQTGGSLRLSCAASDSTFSSYIMGWFRQAPGKEREFVAGITWSGGIKDYADSVKGRFTIARDNAKNTVYLQMNSLKPEDAAIYYCAANAIQLTRRSGDYAYWGQGTQVTVSS
notes: VHH-hIgG1Fc recombinant antibody; also called 5-hlgG1Fc; VHH-hIgG1Fc recombinant antibody of clone 5; not shown: human IgG1 Fc (hIgG1Fc)
[3]
  absorbance at 450 nm: 0.274
[4]
  absorbance at 450 nm: 0.108
[5]
  absorbance at 450 nm: 0.247
[6]
  absorbance at 450 nm: 0.057
[7]
  absorbance at 450 nm: 0.275
[8]
  absorbance at 450 nm: 0.207
[9]
  absorbance at 450 nm: 2.35
[10]
  absorbance at 450 nm: 0.39
[11]
  absorbance at 450 nm: 0.463
[12]
  absorbance at 450 nm: 1.86
[13]
  absorbance at 450 nm: 2.53
[14]
  EC50: 0.55 µg/mL and 6.87 nM
[15]
  EC50: 0.81 µg/mL and 10.1 nM
[16]
  absorbance at 450 nm: 0.942
[17]
  absorbance at 450 nm: 1.41
[18]
  absorbance at 450 nm: 2.14
[19]
  absorbance at 450 nm: 3.5

B4: 5H1-mIgG Fc (Fc fusion)
chain: QVQLVESGGGLVQTGGSLRLSCAASDSTFSSYIMGWVRQAPGKGLEWVAGITWSGGIKDYADSVKGRFTIARDNAKNTVYLQMNSLKPEDAAIYYCAANAIQLTRRSGDYAYWGQGTQVTVSS
notes: Subclass printed only as mIgG Fc for this one; also called 5H1-mlgG Fc; H1-mlgG Fc; not shown: mouse IgG Fc (printed mIgG Fc)
[2]
  Kd: 7.21 nM
  koff: 0.000552 s⁻¹
  kon: 76600 M⁻¹ s⁻¹

B5: 5H2-mIgG2a Fc (Fc fusion)
chain: QVQLVESGGGLVQPGGSLRLSCAASDSTFSSYIMGWFRQAPGKGLEFVAGITWSGGIKDYADSVKGRFTIARDNSKNTLYLQMNSLRAEDAAVYYCAANAIQLTRRSGDYAYWGQGTLVTVSS
notes: also called 5H2-mIgG Fc; 5H2-mlgG2a Fc; not shown: mouse IgG2a Fc
[2]
  Kd: 3.32 nM
  koff: 0.000417 s⁻¹
  kon: 126000 M⁻¹ s⁻¹

B6: 1-hIgG1Fc (Fc fusion)
chain: EVQLVGSGGGLVQPGGSLRLSCAASGSILNLMTTGWYRQAPGKQRDLVATITFGGTTNYADSVKGRFTISRDKSKNTAYLQMDNLKPEDTAVYFCYADVIVGFQDRRVAWDAGTQVTVSS
notes: VHH-hIgG1Fc recombinant antibody; also called 1-hlgG1Fc; VHH-hIgG1Fc recombinant antibody of clone 1; not shown: human IgG1 Fc (hIgG1Fc)
[3]
  absorbance at 450 nm: 0.282
[4]
  absorbance at 450 nm: 0.066
[5]
  absorbance at 450 nm: 0.275
[6]
  absorbance at 450 nm: 0.06
[7]
  absorbance at 450 nm: 0.271
[8]
  absorbance at 450 nm: 0.07
[9]
  absorbance at 450 nm: 2.66
[20]
  absorbance at 450 nm: 2.36
[10]
  absorbance at 450 nm: 0.293
[11]
  absorbance at 450 nm: 0.1
[12]
  absorbance at 450 nm: 1.35
[13]
  absorbance at 450 nm: 0.473
[14]
  EC50: 1.46 µg/mL and 18.3 nM
[15]
  EC50: 15.7 µg/mL and 196 nM
[21]
  EC50: 200 nM
[16]
  absorbance at 450 nm: 0.585
[17]
  absorbance at 450 nm: 0.216
[18]
  absorbance at 450 nm: 2.13
[19]
  absorbance at 450 nm: 1.08

B7: 10-hIgG1Fc (Fc fusion)
chain: QVQLAESGGGLVQPGGSLRLSCAASGNILSINYMGWYRQAPGKERELVATITRGGTTNYQGDLKGRFIISGDNTKDTVYLQMNNLQPEDTAVYYCYFRINFGILGGLRDYWGQGTQVTVSS
notes: VHH-hIgG1Fc recombinant antibody; also called 10-hlgG1Fc; VHH-hIgG1Fc recombinant antibody of clone 10; not shown: human IgG1 Fc (hIgG1Fc)
[3]
  absorbance at 450 nm: 0.329
[4]
  absorbance at 450 nm: 0.063
[5]
  absorbance at 450 nm: 0.311
[6]
  absorbance at 450 nm: 0.054
[7]
  absorbance at 450 nm: 0.355
[8]
  absorbance at 450 nm: 0.084
[9]
  absorbance at 450 nm: 2.62
[20]
  absorbance at 450 nm: 3.38
[10]
  absorbance at 450 nm: 0.568
[11]
  absorbance at 450 nm: 0.172
[22]
  EC50: 4 nM
[12]
  absorbance at 450 nm: 2.14
[13]
  absorbance at 450 nm: 1.06
[14]
  EC50: 0.4 µg/mL and 4.96 nM
[15]
  EC50: 4 µg/mL and 50 nM
[16]
  absorbance at 450 nm: 1.46
[17]
  absorbance at 450 nm: 0.476
[18]
  absorbance at 450 nm: 2.51
[19]
  absorbance at 450 nm: 2.15

B8: 2-mIgG2aFc (Fc fusion)
chain: EVQLVESGGGLVQPGGSLRLSCAASGNILSINYMGWYRQAPGKERELVATITRGGSTNYQGNLKGRFIISGDNTKDTVYLQMNNLQPEDTAVYYCYFRINFGILGGLRDYWGQGTQVTVSS
notes: Fusion antibody anti-Claudin18.2 VHH-mIgG2aFc; also called 2-mIgG Fc; 2-mlgG2a Fc; not shown: mouse IgG2a Fc (mIgG2aFc)
[2]
  Kd: 1.1 nM
  koff: 0.00052 s⁻¹
  kon: 471000 M⁻¹ s⁻¹
[1]
  EC50: 0.02 nM

B9: VHH clone 3 (phage-displayed) (VHH)
VHH: QVQLVESGGGLVQAGDSVRLSCAASGQTLSNYNVAWFRQAPGKEREFVAGATWSGRITNYSDSVRGRFTISRDNAKNTVYLQMNSLGPGDTAVYHCAANSFQLGDKPGDYHYWGQGTQVTVSS
notes: Tested as phage supernatant, detected with PE anti-M13; also called Clone ID 3
[23]
  binding result: binds

B10: 8-hIgG1Fc (Fc fusion)
chain: QVQLVESGGGLVQPGGSLRLSCAASGSIFGLNFMGWWRQAPGSQRELVAIATSGGSIQYGDSVKGRFTISRDNAKNTVYLQMASLKPEDTAVYYCNVHTYDFLGRDYWGQGTQVTVSL
notes: VHH-hIgG1Fc recombinant antibody; also called 8-hlgG1 Fc; VHH-hIgG1Fc recombinant antibody of clone 8; not shown: human IgG1 Fc (hIgG1Fc)
[3]
  absorbance at 450 nm: 0.326
[5]
  absorbance at 450 nm: 0.289
[7]
  absorbance at 450 nm: 0.337
[9]
  absorbance at 450 nm: 2.46
[10]
  absorbance at 450 nm: 0.474
[12]
  absorbance at 450 nm: 1.87
[14]
  EC50: 0.61 µg/mL and 7.66 nM
[16]
  absorbance at 450 nm: 0.931
[18]
  absorbance at 450 nm: 2.1

B11: VHH clone 9 (phage-displayed) (VHH)
VHH: EVQLVESGGGLVQPGGSLRLSCAASGSIFGLNFMGWWRQAPGSQRELVAIATSGGSIQYGDSVKGRFTISRDNAKNTVYLQMANLKPEDTAVYYCNVHTYDFLGRDYWGQGTQVTVSL
notes: Tested as phage supernatant, detected with PE anti-M13; also called Clone ID 9
[23]
  binding result: binds

B12: VHH clone 14 (phage-displayed) (VHH)
VHH: EVQLVESGGGLVQPGGSLRLSCAASGSLFSIITMGWYRQAPGKQRELVATVTRGGRLNYGDSVKGRFTISSGNVENTLDLQMNNLKPEDTAVYYCNAILESGNFWGRGTQVTVSS
notes: Tested as phage supernatant, detected with PE anti-M13; also called Clone ID 14
[23]
  binding result: binds

B13: VHH clone 11 (phage-displayed) (VHH)
VHH: QVQLVESGGGLVQPGGSLRLSCAASGNILSINYMGWYRQAPGKERELVAIITRGGSTTYAPSLKGRFTISGDNAKDTVYLQMNSLQPEDTAVYYCNFRINFGILGGLRDYWGQGTQVTVSS
notes: Tested as phage supernatant, detected with PE anti-M13; also called Clone ID 11
[23]
  binding result: binds

B14: VHH clone 4 (phage-displayed) (VHH)
VHH: EVQLVESGGGLVQPGGSLRLSCAASGQFFSLNYLAWYRQAPGSQRELIALVSSGGSTQYGDSVKGRFTISRDNAKNTVYLQMASLKPEDTAVYYCNLHTYDFLGRDYWGQGTQVTISS
notes: Tested as phage supernatant, detected with PE anti-M13; also called Clone ID 4
[23]
  binding result: binds
